Read-outs that look alike come from different tables or passages of the source.
Key:
[1] = molecular target: T1, recombinant human transferrin receptor protein (Sino Biological 11020-H07H) (human, UniProt P02786 89-760); test: ELISA on plate-coated recombinant human TfR1; fit: specific binding with Hill slope
T1 construct: Bought protein coated on ELISA plates; also called recombinant human TfR1; human TfR1
Method: (§1) 100 μL of Superblock (ThermoFisher PI-37535) was added to each well and incubated for 1 hour at room temperature. The wash step was repeated before the addition of the samples. Samples were added at concentrations up to 10 nM, 50 μL/well. Plates were incubated for another hour at room temp and wash step repeated. Secondary antibody (Peroxidase AffiniPure Goat Anti-Human IgG, Fcγ Fragment Specific, Jackson Immunoresearch, 109-035-098) was diluted 1:5000 in Superblock and 50 μL/well added. Plates were incubated for 1 hour at room temperature and washed one more time. Binding was measured by the addition of 50 μL of 1-Step™ Ultra TMB-ELISA (ThermoFisher, 34028), incubated for 5 minutes, and the reaction was stopped with the addition of 25 μL of Stop Solution 2N sulfuric Acid (R&D Systems DY994). Absorbance was measured at 450 nm, with reference wavelength 570 nm subtracted. Binding constants were determined using GraphPad Prism Specific Binding with Hill Slope.
(§2) Half-well high-binding 96-well plates (Costar #3690) were coated with recombinant human transferrin receptor protein (Sino Biological 11020-H07H) or recombinant cyno transferrin receptor protein (Sino Biological 90253-C07H) at 1 ng/μL in PBS (Gibco 14190) and incubated overnight at 4° C. […] Absorbance was measured at 450 nm, with reference wavelength 570 nm subtracted. […]

[2] = molecular target: T2, recombinant cyno transferrin receptor protein (Sino Biological 90253-C07H) (cyno, UniProt H9EXL1 89-760 (rhesus entry)); test: ELISA on plate-coated recombinant cyno TfR1 (CD71); fit: specific binding with Hill slope
T2 construct: Bought protein coated on ELISA plates; also called recombinant cyno TfR1; cynoTfR1
T2 sequence (chain, as listed by the source C07H C07H): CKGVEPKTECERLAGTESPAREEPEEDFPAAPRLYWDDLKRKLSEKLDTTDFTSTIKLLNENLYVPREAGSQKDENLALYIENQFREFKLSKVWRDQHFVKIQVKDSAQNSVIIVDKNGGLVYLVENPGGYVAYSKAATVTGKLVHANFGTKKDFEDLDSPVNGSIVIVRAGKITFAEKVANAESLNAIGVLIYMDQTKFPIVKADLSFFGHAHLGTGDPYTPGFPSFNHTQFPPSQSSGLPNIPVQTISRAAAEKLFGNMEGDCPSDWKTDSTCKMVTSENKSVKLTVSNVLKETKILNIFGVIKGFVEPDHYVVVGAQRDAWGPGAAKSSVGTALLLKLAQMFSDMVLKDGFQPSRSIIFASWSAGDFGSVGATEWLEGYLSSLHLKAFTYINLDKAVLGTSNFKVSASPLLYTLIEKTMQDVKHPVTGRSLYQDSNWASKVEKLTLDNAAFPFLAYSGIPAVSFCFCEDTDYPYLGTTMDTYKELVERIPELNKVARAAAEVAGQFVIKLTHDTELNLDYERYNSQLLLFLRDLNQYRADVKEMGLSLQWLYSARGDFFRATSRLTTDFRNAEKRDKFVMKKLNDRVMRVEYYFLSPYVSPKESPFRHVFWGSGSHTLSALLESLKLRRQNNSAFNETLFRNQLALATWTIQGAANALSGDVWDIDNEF
Method: as §1, §2

[3] = molecular target: T3, TfR2 (transferrin receptor 2) (UniProt Q9UP52 105-801, limits assumed); test: A450 plate assay on TfR2 (method not described in the text)
T3 sequence (looked up): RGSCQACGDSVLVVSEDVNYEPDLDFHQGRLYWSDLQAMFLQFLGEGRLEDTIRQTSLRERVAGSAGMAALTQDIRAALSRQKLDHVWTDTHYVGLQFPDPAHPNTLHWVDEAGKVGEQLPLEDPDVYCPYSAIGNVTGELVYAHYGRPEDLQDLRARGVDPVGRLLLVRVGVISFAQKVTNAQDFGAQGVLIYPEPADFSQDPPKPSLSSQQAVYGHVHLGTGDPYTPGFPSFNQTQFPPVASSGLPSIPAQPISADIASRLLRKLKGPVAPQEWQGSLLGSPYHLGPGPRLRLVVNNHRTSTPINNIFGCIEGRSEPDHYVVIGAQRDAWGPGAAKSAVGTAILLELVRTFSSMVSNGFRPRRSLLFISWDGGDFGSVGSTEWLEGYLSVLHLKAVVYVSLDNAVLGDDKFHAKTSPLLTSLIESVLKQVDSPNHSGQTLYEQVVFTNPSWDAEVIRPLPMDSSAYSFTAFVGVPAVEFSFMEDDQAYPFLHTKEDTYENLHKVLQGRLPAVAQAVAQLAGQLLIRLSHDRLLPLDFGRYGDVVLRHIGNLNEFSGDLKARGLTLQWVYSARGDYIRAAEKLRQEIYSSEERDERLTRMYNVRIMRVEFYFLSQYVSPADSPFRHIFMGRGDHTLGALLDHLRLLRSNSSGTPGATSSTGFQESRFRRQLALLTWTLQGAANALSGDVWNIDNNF

[4] = molecular target: T4, hTfR (human transferrin receptor, source and construct not stated) (human, UniProt P02786 89-760, limits assumed); test: SPR (BioRad ProteOn XPR36), mAb captured on Protein A, hTfR as analyte, 25 C
T4 sequence (P02786 89-760 limits assumed): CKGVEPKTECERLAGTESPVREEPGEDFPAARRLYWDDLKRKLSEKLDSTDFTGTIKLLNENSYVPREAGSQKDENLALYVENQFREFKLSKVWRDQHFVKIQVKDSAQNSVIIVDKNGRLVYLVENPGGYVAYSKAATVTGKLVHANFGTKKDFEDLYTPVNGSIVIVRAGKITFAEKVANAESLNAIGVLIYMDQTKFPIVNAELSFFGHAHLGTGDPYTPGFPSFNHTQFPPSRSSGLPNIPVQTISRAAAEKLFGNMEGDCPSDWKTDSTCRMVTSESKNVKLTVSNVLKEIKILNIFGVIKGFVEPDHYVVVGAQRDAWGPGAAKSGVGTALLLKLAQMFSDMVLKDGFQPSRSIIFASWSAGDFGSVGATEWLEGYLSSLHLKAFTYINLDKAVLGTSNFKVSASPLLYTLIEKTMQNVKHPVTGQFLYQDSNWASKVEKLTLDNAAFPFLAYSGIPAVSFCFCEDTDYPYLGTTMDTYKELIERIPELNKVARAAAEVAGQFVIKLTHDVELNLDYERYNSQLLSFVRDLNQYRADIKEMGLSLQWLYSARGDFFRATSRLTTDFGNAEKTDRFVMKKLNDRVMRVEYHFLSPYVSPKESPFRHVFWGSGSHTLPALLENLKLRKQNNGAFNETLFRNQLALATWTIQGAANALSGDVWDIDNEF
Method: The binding kinetics of nine exemplary humanized anti-TfR antibodies and the parent chimeric antibody were characterized. Studies were run on a BioRad ProteOn XPR36 optical biosensor using a GLM sensor chip coated with Protein A for mAb capture. Running buffer included 10 mM EPES, 150 mM NaCl, pH 7.4 with 0.05 tween-20 with 0.2 mg/ml BSA. Data were collected at 25 degrees C. All mAbs were diluted into running buffer to 2 ug/ml based on the stock concentration provided. Each was then captured for 40 seconds over a Protein A surface.
hTfR (100 ug) was dissolved into […] of water to yield a 4.3 uM stock concentration. hTfR was dilted to 43 nM as the highest concentration and tested in a 3 fold dilution series. hTfR was injected at 200 ul/min for 2 minutes followed by a one-hour dissociation phase.

[5] = molecular target: T4, hTfR (human transferrin receptor, …); test: ELISA, biotinylated antibody on hTfR captured by plate-coated HFE (HFE+TfR)
[6] = molecular target: T4, hTfR (human transferrin receptor, …); test: ELISA; ratio of the Kd on HFE-captured hTfR to the Kd on directly coated hTfR
[7] = molecular target: T4, hTfR (human transferrin receptor, …); test: ELISA; ratio of the Kd on transferrin-captured hTfR to the Kd on directly coated hTfR
Method: (§3) Antibodies were biotinylated using 50 fold molar excess of EZ-Link No weigh NHS-Biotin (Thermo Scientific A39256) following manufacturer's instructions. Half-well high-bind plates (Costar #3690) were coated with 500 ng/mL purified human holo-transferrin (R&D Systems 2914-HT) in PBS at 4° C. overnight. For comparison, plates were coated directly with hTfR. Plates were washed four times with 100 μL of Tris buffered saline+Tween (20×TBST, Cell Signaling 9997S). 100 μL of Superblock (ThermoFisher PI-37535) was added to each well and incubated for 1 hour at room temperature. The wash step was repeated before the addition of the hTfR (200 ng/mL in 25 μl) to the transferrin plates, or Superblock to the hTfR plates, and incubated for 30 minutes. Biotinylated antibodies were diluted to 20 nM for the high concentration and added to the plates with 3-fold serial dilution. 25 μl/well was added to the 25 μl already in the plate. Plates were incubated for 1 hour, and wash step was repeated. Streptavidin-HRP (R&D Systems DY998) was added following recommended dilution on the package insert, and a final wash step was done. Binding was measured by the addition of 50 μL of 1-Step™ Ultra TMB-ELISA (ThermoFisher, 34028), incubated for 5 minutes, and the reaction was stopped with the addition of 25 μL of Stop Solution 2N sulfuric Acid (R&D Systems DY994). Absorbance was measured at 450 nm, with reference wavelength 570 nm subtracted. Binding constants were determined using GraphPad Prism Specific Binding with Hill Slope. Change in antibody binding constants in the presence versus absense of transferrin is considered relative to the commercially available antibody which is known to have an overlapping epitope with transferrin (AF2474, R&D Systems).

[8] = molecular target: T2, recombinant cyno transferrin receptor …; test: ELISA on plate-coated recombinant cyno TfR1 (CD71); fit: specific binding with Hill slope; remark: listed apart in the source
Method: as §1, with “Half-well high-binding 96-well plates (Costar #3690) were coated with recombinant human transferrin receptor protein (Sino Biological 11020-H07H) or recombinant cyno transferrin receptor protein (Sino Biological 90253-C07H) at 1 ng/μL in PBS (Gibco 14190) and incubated overnight at 4° C. Plates were washed four times with 100 μL of Tris buffered saline+Tween (20×TBST, Cell Signaling 9997S). 100” for “100”

[9] = molecular target: T4, hTfR (human transferrin receptor, …); test: ELISA, biotinylated antibody on hTfR captured by plate-coated HFE (HFE+TfR); fit: specific binding with Hill slope
[10] = molecular target: T4, hTfR (human transferrin receptor, …); test: ELISA, biotinylated antibody on hTfR captured by plate-coated human holo-transferrin (Tf+TfR); fit: specific binding with Hill slope
Method: as §3

[11] = molecular target: T1, recombinant human transferrin receptor …; test: ELISA on plate-coated recombinant human TfR1 (CD71); fit: specific binding with Hill slope (row labels blank in the lower block; row taken by the order Bmax, h, Kd)
Method: as §1, with “Half-well high-binding 96-well plates (Costar #3690) were coated with recombinant human transferrin receptor protein (Sino Biological 11020-H07H) or recombinant cyno transferrin receptor protein (Sino Biological 90253-C07H) at 1 ng/μL in PBS (Gibco 14190) and incubated overnight at 4° C. Plates were washed four times with 100 μL of Tris buffered saline+Tween (20×TBST, Cell Signaling 9997S). 100” for “100”

T1 sequence (P02786 89-760 limits assumed): as above

B1: hTfR1.IgG2 mAb (chimeric human IgG2 anti-hTfR1 antibody) (antibody, V domains shown)
VH: QVQLQQPGAELVKPGASVKLSCKASGYTFTNYWMHWVKQRPGQGLEWIGEINPINGRSNYGERFKTKATLTVDKSSSTAYMQLSSLTSEDSAVYYCARGTRAMHYWGQGTSVTVSS
VL: DIQMTQSPASLSVSVGETVTITCRTSENIYNNLAWYQQKQGKSPQLLVYAATNLADGVPSRFSGSGSGTQYSLKINSLQSEDFGNYYCQHFWGTPLTFGAGTKLELKR
notes: The heavy variable region is printed there only as images; also called hTfRL.IgG2 mAb; TfR1-IgG2 mAb chimera
For B1, the Kd [1] was 0.00322 nM and the Kd [2] was 0.00487 nM.

B2: 13E4-Variant 15iii (antibody, human IgG1, kappa, L234A L235A)
heavy: QVQLVQSGAEVKKPGASVKVSCKASGYTFTNYWMHWVRQAPGQGLEWMGEINPIQGRSNYAEKFQGRVTLTVDTSSSTAYMELSSLRSEDTATYYCARGTRAMHYWGQGTLVTVSSASTKGPSVFPLAPSSKSTSGGTAALGCLVKDYFPEPVTVSWNSGALTSGVHTFPAVLQSSGLYSLSSVVTVPSSSLGTQTYICNVNHKPSNTKVDKRVEPKSCDKTHTCPPCPAPEAAGGPSVFLFPPKPKDTLMISRTPEVTCVVVDVSHEDPEVKFNWYVDGVEVHNAKTKPREEQYNSTYRVVSVLTVLHQDWLNGKEYKCKVSNKARPAPIEKTISKAKGQPREPQVYTLPPSREEMTKNQVSLTCLVKGFYPSDIAVEWESNGQPENNYKTTPPVLDSDGSFFLYSKLTVDKSRWQQGNVFSCSVMHEALHNHYTQKSLSLSPG
light: DIQMTQSPSSLSASVGDRVTITCRTSENIYSNLAWYQQKPGKAPKLLIYAGTNLADGVPSRFSGSGSGTDYTLTISSLQPEDFANYYCQHFWGTPLTFGGGTKVEIKRTVAAPSVFIFPPSDEQLKSGTASVVCLLNNFYPREAKVQWKVDNALQSGNSQESVTEQDSKDSTYSLSSTLTLSKADYEKHKVYACEVTHQGLSSPVTKSFNRGEC
notes: Humanized hIgG1 with Fc mutations; also called hIgG1 TfR-Var15iii
With B2 the binding result [3] was “no binding (tested: 1000 nM)”, the Kd [4] was 0.00999 nM and the koff [4] was 6.94e-06 s⁻¹. For the same binder, the kon [4] was 695000 M⁻¹ s⁻¹, the “EC50 (read off the curve)” value [5] was roughly 0.2 nM and the “Kd(HFE+TfR)/Kd(TfR)” value [6] was 8.5. For the same binder, the “Kd(Tf+TfR)/Kd(TfR)” value [7] was 2.4, the Bmax [8] was 96.4 % max binding and the Kd [8] was 0.0103 nM. For the same binder, the h [8] was 1.54, the Bmax [9] was 1.81 A450 and the Kd [9] was 0.213 nM. It also gave a h [9] of 1.45, a Bmax [10] of 3.5 A450 and a Kd [10] of 0.0604 nM. The h [10] was 1.52, the Bmax [11] was 96.5 % max binding and the Kd [11] was 0.0063 nM. It also gave a h [11] of 1.35.
